Columns and labels:
[1] = anti-FLAG WB normalised to β-actin, HeLa; conditions: glycan lost; control: wild-type SF
[2] = WB of culture media, HeLa (data not shown); conditions: glycan lost; control: wild-type SF
[3] = anisomycin chase 2-10 h, anti-FLAG WB, HeLa; conditions: glycan lost; control: wild-type SF
[4] = non-reducing SDS-PAGE and WB, dimer fraction, HeLa; conditions: glycan lost; control: wild-type SF
[5] = anti-Sda KM694 WB of HeLa glycoproteins, normalised; conditions: glycan lost; control: wild-type SF
[6] = confocal colocalisation with TMEM165 and Calnexin, HeLa; conditions: glycan lost; control: wild-type SF-eGFP
[7] = UDP-[3H]GalNAc transfer to fetuin, COS-7 lysates, normalised; conditions: glycan lost; control: wild-type SF

B1: SF-B4GALNT2: N77Q (protein)
parent chain: MTSGGSRFLWLLKILVIILVLGIVGFMFGSMFLQAVFSSPKPELPSPAPGVQKLKLLPEERLRNLFSYDGIWLFPKNQCKCEANKEQGGYNFQDAYGQSDLPAVKARRQAEFEHFQRREGLPRPLPLLVQPNLPFGYPVHGVEVMPLHTVPIPGLQFEGPDAPVYEVTLTASLGTLNTLADVPDSVVQGRGQKQLIISTSDRKLLKFILQHVTYTSTGYQHQKVDIVSLESRSSVAKFPVTIRHPVIPKLYDPGPERKLRNLVTIATKTFLRPHKLMIMLRSIREYYPDLTVIVADDSQKPLEIKDNHVEYYTMPFGKGWFAGRNLAISQVTTKYVLWVDDDFLFNEETKIEVLVDVLEKTELDVVGGSVLGNVFQFKLLLEQSENGACLHKRMGFFQPLDGFPSCVVTSGVVNFFLAHTERLQRVGFDPRLQRVAHSEFFIDGLGTLLVGSCPEVIIGHQSRSPVVDSELAALEKTYNTYRSNTLTRVQFKLALHYFKNHLQCAA
Q: What does the source list for B1?
A: expression_or_secretion [1]: decreases; expression_or_secretion [2]: no change; degradation_or_half_life [3]: increases; oligomerisation [4]: decreases; enzymatic_activity [5]: no change; localisation_or_trafficking [6]: changes; enzymatic_activity [7]: decreases

Source: PMC9959560
